The labels stand for the following.
B1: CPEB3 Ribozyme (parent)
chain: GGGGGCCACAGCAGAAGCGUUCACGUCGCGGCCCCUGUCAGAUUCUGGUGAAUCUGCGAAUUCUGCUGU

The variants in this data set derive from B1. Description: self-cleavage, relative activity (ratio to wild type); higher = more cleavage; co-transcriptional.
Turning to C6G U44C, the self-cleavage was 0.281. The figure for C6G U44A is 0.224; for C6G U44G it is 0.183. Take C6G G50A: the self-cleavage worked out at 0.42.

Turning to C6G G50U, the self-cleavage came to 0.37.

For the variant C6G, the self-cleavage is 0.388. Under C6A stands 0.705; under C6A G31C, 0.762; under C6A G31A, 0.775. The figure for C6A G31U is 0.986; for C6G U64A it is 0.133. On to C6A U53C, for which the self-cleavage was determined as 0.335.

Consider C6A U53A, for which the self-cleavage was 0.422. Under C6A U53G stands 0.195; under C6A G68A, 0.881; under C6A G68U, 0.939. The figure for C6A G68C is 0.889; for G5U C54U it is 0.231; for C6A G28U it is 0.163. For C6A G28A, the self-cleavage worked out at 0.138. Take C6A G28C: the self-cleavage was determined as 0.155. On to C6G C7U, for which the self-cleavage stood at 0.176. The figure for C6G G47C is 0.36; for C6G G47A it is 0.377; for C6G C27U it is 0.0872. The figure for C6G C27A is 0.0381; for C6G C27G it is 0.0563. Turning to C6G A13G, the self-cleavage was 0.0914. Under C6G G31U stands 0.967. Under C6G G31A stands 0.753. Turning to C6G G11C, the self-cleavage worked out at 0.17. The figure for C6A U69C is 1.03; for C6A U69G it is 0.838. The figure for C6A U69A is 0.884.

Take C6A G56C: the self-cleavage was found to be 0.225. The figure for C6G U67C is 0.344. Under C6G U67G stands 0.374; under G5U U61A, 0.108.

As for G5U U61C, the self-cleavage was 0.0722. Under C6G C39G stands 0.174; under C6A G41A, 0.241; under G5U G41C, 0.113. On to G5U G41U, for which the self-cleavage came to 0.0869.

Regarding C6G U53C, the self-cleavage is 0.108. The figure for C6G U53A is 0.234. Regarding G5U C34G, the self-cleavage was 0.0508.

For G5U U21C, the self-cleavage turned out to be 0.119. The figure for G5U U21A is 0.158; for C6G C18A it is 0.0602. Regarding C6G C18G, the self-cleavage is 0.062. On to C6G C18U, for which the self-cleavage was 0.0723. Under C6G C54G stands 0.0918; under C6G C54U, 0.398.

As for G5U C66A, the self-cleavage worked out at 0.19. The figure for G5U C66U is 0.299; for G5U C66G it is 0.133; for C6G G68C it is 0.478. The figure for C6G G68A is 0.602. Under C6G G68U stands 0.509. C6G A42U: the self-cleavage is 0.154.

As to C6G A42C, the self-cleavage was determined as 0.257. The figure for C6A G50C is 0.594; for C6A G50U it is 0.727; for C6A U21C it is 0.287.

Turning to C6A U21A, the self-cleavage was determined as 0.554. C6A U21G: the self-cleavage turned out to be 0.179. Under C6G A16C stands 0.0895. The figure for C6G A16U is 0.151. Turning to G5U C57A, the self-cleavage amounted to 0.11. On to C6A C12G, for which the self-cleavage worked out at 0.26. Under C6A C12A stands 0.16; under G5U G47U, 0.296.

For the variant G5U G47A, the self-cleavage amounted to 0.294. As for G5U G47C, the self-cleavage was found to be 0.277. For the variant C6G U49C, the self-cleavage is 0.417. Under C6G U49A stands 0.467; under C6G U49G, 0.31; under C6A A23G, 0.511.

With C6A A23U, the self-cleavage worked out at 0.749. Under C6A A23C stands 0.519. As for C6A C9G, the self-cleavage worked out at 1.02. The figure for C6A C9A is 0.961. Under G5U U67G stands 0.615; under C6A U44A, 0.373; under C6A U44C, 0.455. For C6A U44G, the self-cleavage stood at 0.416. The figure for C6A U55C is 0.142; for G5U U46A it is 0.24. G5U U46C: the self-cleavage was 0.254. The figure for G5U U46G is 0.321; for G5U U49C it is 0.232; for G5U U49A it is 0.316. The figure for G5U G48U is 0.332; for G5U G48C it is 0.327.

As for C6G G25C, the self-cleavage was 0.0497. The figure for C6G G25U is 0.0634; for G5U U69G it is 0.671; for C6A C32G it is 0.147. With C6A C32U, the self-cleavage is 0.123.

As to C6A C32A, the self-cleavage is 0.349. In the case of C6A U36C, the self-cleavage was 0.247. The figure for G5U G65A is 0.187.

On to G5U G65U, for which the self-cleavage came out at 0.0885. Under G5U G28U stands 0.0687; under G5U G28A, 0.046. Under G5U G28C stands 0.0876; under C6A A13G, 0.506; under C6G G56U, 0.152. Under C6G G56C stands 0.199. In the case of C6G G56A, the self-cleavage is 0.204. Under C6A A16C stands 0.0824; under C6A A16U, 0.159. Turning to C6A A16G, the self-cleavage was found to be 0.418. The figure for C6G C45U is 0.362; for C6G C45A it is 0.227.

Take C6G A8U: the self-cleavage came out at 0.149. The figure for C6G A8C is 0.873; for C6G C66U it is 0.316; for C6G C66A it is 0.18. The figure for C6G U26A is 0.188; for C6G U26G it is 0.224; for G5U G11U it is 0.098. Under C6G U36A stands 0.0334; under C6G U36G, 0.105.

Take C6A U67A: the self-cleavage stood at 0.782. Regarding C6A U67C, the self-cleavage is 0.883. The figure for C6A U26A is 0.256; for C6A U26G it is 0.265.

C6A A8C: the self-cleavage was found to be 0.733. For the variant C6A A8U, the self-cleavage came out at 0.607. The figure for C6G A15C is 0.122. On to C6G G65A, for which the self-cleavage is 0.109.

Consider C6G G65U, for which the self-cleavage stood at 0.226. The figure for C6G G14A is 0.0825; for C6G G14C it is 0.0817; for C6A C18G it is 0.145.

C6A C18U: the self-cleavage is 0.146. Take C6A C18A: the self-cleavage amounted to 0.167. Under C6G A40U stands 0.0791.

Turning to C6G A40G, the self-cleavage turned out to be 0.307. Under C6G A40C stands 0.128.

C6A G48C: the self-cleavage was 0.693.

In the case of G5U U38C, the self-cleavage came out at 0.174. In the case of C6A G11A, the self-cleavage came to 0.536. Under C6A G11U stands 0.448; under C6A C7A, 0.143. As for G5U U20G, the self-cleavage turned out to be 0.0745. The figure for G5U U20C is 0.0958; for G5U U20A it is 0.0505; for C6G C57U it is 0.189. The figure for C6G C57A is 0.0667; for C6A G37U it is 0.142. Under C6A G37C stands 0.122. For C6A G37A, the self-cleavage was found to be 0.149. Under C6G G30A stands 0.172.

As to C6G G30C, the self-cleavage was 0.133. Under C6G A59G stands 0.255; under C6G A59C, 0.21; under C6G A10U, 0.375. The figure for C6G A10G is 0.459; for C6A U43G it is 0.367. Under C6A C33U stands 0.347; under C6A C33G, 0.108. Turning to C6A G65C, the self-cleavage came to 0.157.

As for C6A G65A, the self-cleavage worked out at 0.451.

In the case of C6A G65U, the self-cleavage came out at 0.305.

On to G5U U62A, for which the self-cleavage stood at 0.123.
